The values below come from article PMC9060507 (Proceedings of the National Academy of Sciences of the …, 2022).

The target in the experiment is T1, Methylosinus trichosporium OB3b MbnBC enzyme complex (wild type) (Methylosinus trichosporium OB3b, UniProt A0A2D2D5M1;A0A2D2CY73).
T1 sequence 1: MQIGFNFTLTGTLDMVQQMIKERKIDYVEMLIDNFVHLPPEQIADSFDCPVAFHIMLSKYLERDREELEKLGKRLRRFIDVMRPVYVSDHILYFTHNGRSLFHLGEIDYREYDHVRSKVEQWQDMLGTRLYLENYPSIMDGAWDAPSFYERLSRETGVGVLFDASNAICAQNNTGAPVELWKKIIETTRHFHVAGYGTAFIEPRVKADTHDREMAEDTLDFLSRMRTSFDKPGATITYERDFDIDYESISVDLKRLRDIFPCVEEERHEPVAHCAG
T1 sequence 2: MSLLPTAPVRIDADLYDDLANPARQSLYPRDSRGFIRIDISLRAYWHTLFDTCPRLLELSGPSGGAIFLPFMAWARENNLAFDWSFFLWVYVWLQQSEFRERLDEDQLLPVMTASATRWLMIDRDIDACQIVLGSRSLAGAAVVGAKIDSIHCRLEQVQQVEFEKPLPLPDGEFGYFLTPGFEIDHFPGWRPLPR
As to the kind of experiment: EPR spectroscopy.

B1: MbnA precursor peptide from Ms. trichosporium OB3b (peptide)
peptide: MTVKIAQKKVLPVIGRAAALCGSCYPCSCM
On to B1, for which the binding result is “binds”.
